One data set deals with µMax20 (UniProt P61244). Put plainly: BLI. The settings on record: EMSA: 10 mM MES pH 6.0, 150 mM KCl, 1 mM MgCl2, 10% glycerol, room temperature, 1 uM DNA; BLI: global 1:1 fit, buffer not in material.
In data set [1] the target is WT Max (synthetic µMax scaffold) (UniProt P61244 22-102). Put plainly: BLI; EMSA: 10 mM MES pH 6.0, 150 mM KCl, 1 mM MgCl2, 10% glycerol, room temperature, 1 uM DNA; BLI: global 1:1 fit, buffer not in material. To be noted: chain copies: 2. (In general: Biolayer interferometry detects binding as a change in optical thickness at a sensor tip.)
WT Max (synthetic µMax scaffold), sequence (P61244 22-102): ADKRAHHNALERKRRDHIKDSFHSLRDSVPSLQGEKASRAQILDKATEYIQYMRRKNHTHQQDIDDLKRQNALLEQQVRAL
The next data set addresses µMax H19Y (UniProt P61244 22-102, H28Y). Put plainly: EMSA; 3 uM protein, 1 uM DNA; EMSA: 10 mM MES pH 6.0, 150 mM KCl, 1 mM MgCl2, 10% glycerol, room temperature, 1 uM DNA; BLI: global 1:1 fit, buffer not in material. The settings on record: chain copies: 2. On the technique in general: A gel shift assay detects complexes by their altered migration in electrophoresis.

The source of these data is paper PMC12636033, “Chemical Engineering of Transcription Factors Uncovered Cell-Permeable μMax Modulators”.

For orientation: Kd means the constant that tells how readily two partners part at equilibrium. A higher Kd goes with a looser complex.

µMax H19Y, sequence (P61244 22-102 H28Y): as the sequence (P61244 22-102) above, with H7Y counted along it
µMax20, sequence (P61244 whole entry): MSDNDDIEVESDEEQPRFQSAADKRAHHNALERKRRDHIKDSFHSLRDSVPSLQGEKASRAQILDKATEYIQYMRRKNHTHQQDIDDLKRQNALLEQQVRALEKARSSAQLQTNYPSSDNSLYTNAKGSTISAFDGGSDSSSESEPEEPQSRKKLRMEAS

Regarding “CCGGCTGACACGTGGTATTAAT (double strand) [E-box DNA probe]”, in the data set with µMax20, the Kd worked out at 4.38 nM.

B1: E-box DNA probe (dsDNA)
DNA 1: CCGGCTGACACGTGGTATTAAT
DNA 2: ATTAATACCACGTGTCAGCCGG
B1 came in with an equilibrium dissociation constant (Kd) in data set [1] of 8.1 ± 2.24 nM. Also, the binding result with µMax H19Y is listed as “binds”.
